# Laboratory results reported in PMC5222524.
# Target: Class C scavenger receptor of Marsupenaeus japonicus (MjSRC), native protein of hemocytes (Marsupenaeus japonicus (endogenous in hemocytes))
# Assay: cross-linking; hemocytes collected 30 min after injection of WSSV or PBS, 5 mM BS3 at 4°C for 1 h in PBS pH 8.0, quenched with Tris-HCl; SDS-PAGE and western blotting with anti-MjSRC sera; oligomer size by molecular mass
substance,measurement,value
"Class C scavenger receptor of Marsupenaeus japonicus (MjSRC), native protein of hemocytes (from UniProt A0A1L2DC21 1-692)",stoichiometry N,3
